This note sets out measurements from publication PMC2111462.

For the assay, the target named is purified rat skin collagen type I (rat) (UniProt P02454). The assay can be described thus: affinity chromatography.
UniProt P02454, sequence (P02454 152-1207, chain 1 of 2): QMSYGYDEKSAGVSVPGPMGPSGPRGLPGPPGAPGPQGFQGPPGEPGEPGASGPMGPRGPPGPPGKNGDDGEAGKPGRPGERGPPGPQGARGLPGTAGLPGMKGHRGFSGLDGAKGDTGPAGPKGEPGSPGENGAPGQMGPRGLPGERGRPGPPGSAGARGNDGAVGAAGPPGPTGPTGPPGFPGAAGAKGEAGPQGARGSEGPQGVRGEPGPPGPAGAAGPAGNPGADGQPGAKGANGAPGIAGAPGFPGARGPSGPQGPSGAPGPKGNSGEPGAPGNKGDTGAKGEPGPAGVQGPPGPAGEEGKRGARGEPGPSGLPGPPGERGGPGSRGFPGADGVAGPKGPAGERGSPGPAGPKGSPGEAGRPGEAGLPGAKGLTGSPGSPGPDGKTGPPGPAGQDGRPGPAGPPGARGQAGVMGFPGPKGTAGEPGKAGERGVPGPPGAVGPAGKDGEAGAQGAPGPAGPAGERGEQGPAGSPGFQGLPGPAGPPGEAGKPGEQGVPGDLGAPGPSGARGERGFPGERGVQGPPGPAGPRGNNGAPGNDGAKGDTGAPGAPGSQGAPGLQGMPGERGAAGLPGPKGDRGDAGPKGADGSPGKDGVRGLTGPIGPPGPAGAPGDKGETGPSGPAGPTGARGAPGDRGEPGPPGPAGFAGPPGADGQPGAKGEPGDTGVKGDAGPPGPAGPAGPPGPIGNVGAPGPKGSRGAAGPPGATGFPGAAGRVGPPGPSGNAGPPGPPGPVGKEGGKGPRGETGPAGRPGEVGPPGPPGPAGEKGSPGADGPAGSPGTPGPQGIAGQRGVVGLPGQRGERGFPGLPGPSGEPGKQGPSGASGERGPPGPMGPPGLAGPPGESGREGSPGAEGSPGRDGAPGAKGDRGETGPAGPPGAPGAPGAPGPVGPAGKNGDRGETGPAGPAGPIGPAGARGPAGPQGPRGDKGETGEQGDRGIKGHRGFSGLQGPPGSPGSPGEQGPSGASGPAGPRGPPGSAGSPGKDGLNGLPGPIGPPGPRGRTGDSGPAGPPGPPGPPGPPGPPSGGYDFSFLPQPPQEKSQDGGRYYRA
UniProt P02454, sequence (P02466 86-1125, chain 2 of 2, further chain): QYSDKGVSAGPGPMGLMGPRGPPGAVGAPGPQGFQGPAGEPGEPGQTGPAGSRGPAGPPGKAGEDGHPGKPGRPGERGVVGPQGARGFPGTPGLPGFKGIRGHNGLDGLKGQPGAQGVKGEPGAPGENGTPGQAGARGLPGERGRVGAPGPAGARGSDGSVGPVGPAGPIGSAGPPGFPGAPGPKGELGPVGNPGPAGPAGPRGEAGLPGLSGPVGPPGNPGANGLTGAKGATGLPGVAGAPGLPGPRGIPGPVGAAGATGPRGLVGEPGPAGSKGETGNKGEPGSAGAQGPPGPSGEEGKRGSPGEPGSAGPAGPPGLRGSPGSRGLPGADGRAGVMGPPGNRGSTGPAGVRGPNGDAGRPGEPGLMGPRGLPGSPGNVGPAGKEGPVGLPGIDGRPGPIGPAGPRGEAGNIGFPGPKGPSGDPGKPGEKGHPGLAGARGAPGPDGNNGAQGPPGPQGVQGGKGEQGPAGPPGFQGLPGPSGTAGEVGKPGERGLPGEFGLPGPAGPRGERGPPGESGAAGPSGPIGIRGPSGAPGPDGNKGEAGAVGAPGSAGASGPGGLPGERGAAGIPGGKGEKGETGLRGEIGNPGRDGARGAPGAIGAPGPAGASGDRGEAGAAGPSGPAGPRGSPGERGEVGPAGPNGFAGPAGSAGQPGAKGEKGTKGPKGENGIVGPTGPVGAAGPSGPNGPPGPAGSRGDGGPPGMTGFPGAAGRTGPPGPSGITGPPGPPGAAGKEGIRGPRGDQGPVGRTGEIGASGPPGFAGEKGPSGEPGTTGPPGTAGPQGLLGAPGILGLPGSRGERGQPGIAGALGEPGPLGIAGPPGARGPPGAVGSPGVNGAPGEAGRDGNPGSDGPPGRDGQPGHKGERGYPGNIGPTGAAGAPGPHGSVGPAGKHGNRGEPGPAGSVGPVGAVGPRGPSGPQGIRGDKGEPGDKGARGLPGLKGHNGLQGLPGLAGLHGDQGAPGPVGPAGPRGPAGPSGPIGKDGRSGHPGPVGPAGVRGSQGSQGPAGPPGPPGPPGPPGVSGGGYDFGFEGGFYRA

The substance “human plasma fibronectin (natural protein)” showed a KBr concentration at which the bound fibronectin eluted of 1 M.
